According to patent publication US10941182 (Amgen, dated 2021):
Values belong to the binder of their own block, whether it stands above or below them. Starred links: 1 amine or outer side, 2 acyl side, 3 side chain; linkers in the order of their positions; H or OH if unused. Non-standard residues stand in square brackets, D forms with d. Primed or numbered codes have the meaning given here. *: point of attachment. dBip = N[C@H](Cc1ccc(-c2ccccc2)cc1)C(=O)O; Oic = O=C(O)[C@@H]1C[C@@H]2CCCC[C@@H]2N1; Phe(4-Cl) = N[C@@H](Cc1ccc(Cl)cc1)C(=O)O; Phe(4-I) = N[C@@H](Cc1ccc(I)cc1)C(=O)O; γGlu = O=C(O)[C@H](CCC(=O)[*:2])N[*:1]; HOOC(CH2)8CO = O=C(O)CCCCCCCCC(=O)*; d(β3hF) = N[C@@H](CC(=O)O)Cc1ccccc1; NMeR = CN[C@@H](CCCNC(=N)N)C(=O)O; Palmitoyl = CCCCCCCCCCCCCCCC(=O)*; Tridecanoyl = CCCCCCCCCCCCC(=O)*; hArg = N=C(N)NCCCC[C@H](N)C(=O)O; Cha = N[C@@H](CC1CCCCC1)C(=O)O; NMeL = CN[C@@H](CC(C)C)C(=O)O; αMeL = CC(C)C[C@](C)(N)C(=O)O; αMeP = C[C@@]1(C(=O)O)CCCN1; AC4Abu″ = not defined here; β3hP = O=C(O)C[C@@H]1CCCN1; Nle = CCCC[C@H](N)C(=O)O; Dap = NC[C@H](N)C(=O)O; AEEA = NCCOCCOCC(=O)O; Aib = CC(C)(N)C(=O)O

Legend:
Test in all cases: cell-based or functional assay
[1] = biological target: T1, rat APJ receptor (rat, UniProt Q9JHG3 1-377)
T1 sequence (looked up): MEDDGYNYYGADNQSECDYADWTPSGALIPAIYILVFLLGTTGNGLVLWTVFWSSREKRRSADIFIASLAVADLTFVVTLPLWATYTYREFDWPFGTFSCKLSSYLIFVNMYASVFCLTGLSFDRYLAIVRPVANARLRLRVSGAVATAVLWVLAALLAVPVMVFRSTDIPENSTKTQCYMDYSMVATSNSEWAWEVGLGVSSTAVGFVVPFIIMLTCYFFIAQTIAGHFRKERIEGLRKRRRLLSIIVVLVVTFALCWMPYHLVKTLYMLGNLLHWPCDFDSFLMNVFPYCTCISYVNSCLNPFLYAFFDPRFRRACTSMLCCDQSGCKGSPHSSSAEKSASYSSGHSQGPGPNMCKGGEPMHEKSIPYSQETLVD

[2] = biological target: T2, rat APJ receptor (rat, UniProt Q9JHG3 1-377); remark: listed apart in the source
T2 sequence (looked up): T1 sequence (looked up)

[3] = biological target: T3, human APJ receptor (human, UniProt P35414 1-380)
T3 sequence (looked up): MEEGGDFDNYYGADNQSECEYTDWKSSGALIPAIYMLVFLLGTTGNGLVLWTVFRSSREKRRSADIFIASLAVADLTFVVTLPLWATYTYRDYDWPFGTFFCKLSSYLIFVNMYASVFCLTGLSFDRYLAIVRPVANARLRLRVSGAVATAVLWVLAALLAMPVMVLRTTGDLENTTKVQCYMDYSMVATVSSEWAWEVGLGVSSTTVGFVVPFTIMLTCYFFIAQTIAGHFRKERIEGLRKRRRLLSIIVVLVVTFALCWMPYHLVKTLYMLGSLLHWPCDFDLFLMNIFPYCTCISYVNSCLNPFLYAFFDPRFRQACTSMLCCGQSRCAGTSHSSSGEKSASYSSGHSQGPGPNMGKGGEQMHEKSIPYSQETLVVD

- EC50 Rat APJ Receptor (GTPγS assay) [1]: 0.253 nM
Binder: Tridecanoyl-[AC4Abu″][AEEA][AEEA]QRP[NMeR][Cha]SHKG[αMeP][Nle]P[Phe(4-Cl)]-OH (reading uncertain) [Apelin polypeptide SEQ ID NO: 418]

- EC50 Rat APJ Receptor (GTPγS assay) [1]: 0.0564 nM
Binder: XXXQRPRLSHKGPXPF ({TDA}[AC4Abu][Aeea][Aeea]QRP[NMeArg][aMeLeu]SHKGP[Nle]P[4-Cl-F]{COOH}) [Apelin polypeptide SEQ ID NO: 457]

- EC50 Rat APJ Receptor [2]: 0.231 nM
Binder: XXXQRPRLSHKGPXPF ({Palm}[AC4Abu][Aeea][Aeea]QRP[NMeArg]LSHKGP[Nle]P[4-Cl-F]{COOH}) [SEQ ID NO: 593]

- EC50 Rat APJ Receptor [2]: 6.12 nM
Binder: XXXQRPRLSHKGPXPF ({ODDA}[AC4Abu][Aeea][Aeea]QRP[NMeArg]LSHKGP[Nle]P[4-Cl-F]{COOH}) [SEQ ID NO: 513]

- EC50 Rat APJ Receptor [2]: 0.903 nM
Binder: XXXQRPRLSHKGPXPF ({DDDA}[AC4Abu][Aeea][Aeea]QRP[NMeArg]LSHKGP[Nle]P[4-Cl-F]{COOH}) [SEQ ID NO: 510]

- EC50 Rat APJ Receptor [2]: 0.528 nM
Binder: XXXQRPRLSHKGPXPF ({St}[AC4Abu][Aeea][Aeea]QRP[NMeArg]LSHKGP[Nle]P[4-Cl-F]{COOH}) [SEQ ID NO: 594]

- EC50 Rat APJ Receptor [2]: 0.215 nM
Binder: Tridecanoyl-[AC4Abu″][AEEA][AEEA][hArg][hArg]Q[hArg]P[NMeR][Cha]SHKG[Oic][Nle]P[Phe(4-Cl)]-OH (reading uncertain) [SEQ ID NO: 309]

- EC50 Rat APJ Receptor [2]: 1.3 nM
B1: SEQ ID NO: 289 (peptide)
peptide: {HOOC(CH2)8CO}-[γGlu][AEEA][AEEA][hArg][dR]Q[hArg]P[dR][NMeL]SHKG[Oic][Phe(4-I)]P[dBip]-OH
SMILES: CC(C)C[C@@H](C(=O)N[C@@H](CO)C(=O)N[C@@H](Cc1c[nH]cn1)C(=O)N[C@@H](CCCCN)C(=O)NCC(=O)N1[C@H](C(=O)N[C@@H](Cc2ccc(I)cc2)C(=O)N2CCC[C@H]2C(=O)N[C@H](Cc2ccc(-c3ccccc3)cc2)C(=O)O)C[C@@H]2CCCC[C@@H]21)N(C)C(=O)[C@@H](CCCNC(=N)N)NC(=O)[C@@H]1CCCN1C(=O)[C@H](CCCCNC(=N)N)NC(=O)[C@H](CCC(N)=O)NC(=O)[C@@H](CCCNC(=N)N)NC(=O)[C@H](CCCCNC(=N)N)NC(=O)COCCOCCNC(=O)COCCOCCNC(=O)CC[C@H](NC(=O)CCCCCCCCC(=O)O)C(=O)O

- EC50 Rat APJ Receptor [2]: 2.75 nM
Binder: QRPRLSHKGPXPF ({Acetyl-NH}Q[hArg]P[NMeArg][aMeLeu]SHKGP[Nle]P[4-Cl-F]{COOH}) [SEQ ID NO: 71]

- EC50 Rat APJ Receptor [2]: 16.1 nM
Binder: KLRKHNCLQRRCMPLHSRVPFP [SEQ ID NO: 15]

- EC50 Rat APJ Receptor [2]: 0.486 nM
Binder: Palmitoyl-[AC4Abu″][AEEA][AEEA][dQ]RP[NMeR][αMeL]S[Dap]KG[Oic][Nle][β3hP][Phe(4-Cl)]-OH (reading uncertain) [SEQ ID NO: 630]

- EC50 Human APJ Receptor (GTPγS assay) [3]: 16.7 nM
- EC50 Rat APJ Receptor (GTPγS assay) [1]: 4.77 nM
B2: Apelin polypeptide SEQ ID NO: 380 (peptide)
peptide: Tridecanoyl-[γGlu][AEEA][AEEA]QRP[NMeR][Cha]SHKG[Oic][Nle]P[d(β3hF)]-OH
SMILES: CCCCCCCCCCCCC(=O)N[C@@H](CCC(=O)NCCOCCOCC(=O)NCCOCCOCC(=O)N[C@@H](CCC(N)=O)C(=O)N[C@@H](CCCNC(=N)N)C(=O)N1CCC[C@H]1C(=O)N(C)[C@@H](CCCNC(=N)N)C(=O)N[C@@H](CC1CCCCC1)C(=O)N[C@@H](CO)C(=O)N[C@@H](Cc1c[nH]cn1)C(=O)N[C@@H](CCCCN)C(=O)NCC(=O)N1[C@H](C(=O)N[C@@H](CCCC)C(=O)N2CCC[C@H]2C(=O)N[C@@H](CC(=O)O)Cc2ccccc2)C[C@@H]2CCCC[C@@H]21)C(=O)O

- EC50 Rat APJ Receptor [2]: 0.128 nM
Binder: XXXQRPRLSHKGPXPF ({TDA}[AC4Abu][Aeea][Aeea][BhGln]RP[NMeArg]LSHKGP[Nle]P[4-Cl-F]{COOH}) [SEQ ID NO: 463]

- EC50 Rat APJ Receptor [2]: 5.94 nM
Binder: XXXQRPRLSHKGPXPF ({AdpA}[AC4Abu][Aeea][Aeea]QrP[hArg][aMeLeu]SHKGP[Nle]P[4-Cl-F]{COOH}) [SEQ ID NO: 515]

- EC50 Rat APJ Receptor (GTPγS assay) [1]: 0.12 nM
Binder: XXXQRPRLSHKGPXPF ({TDA}[AC4Abu][Aeea][Aeea]QRP[NMeArg][BLeu]SHKGP[Nle]P[4-Cl-F]{COOH}) [Apelin polypeptide SEQ ID NO: 458]

- EC50 Rat APJ Receptor [2]: 9.74 nM
Binder: QRPRLSHKGPXPF ({Acetyl-NH}QrP[hArg][aMeLeu]SHKGP[Nle]P[4-Cl-F]{COOH}) [SEQ ID NO: 70]

- EC50 Human APJ Receptor (GTPγS assay) [3]: 0.469 nM
Binder: Tridecanoyl-[AC4Abu″][AEEA][AEEA]QRP[NMeR][Cha]SHKG[Oic][Nle][Aib][Phe(4-Cl)]-OH (reading uncertain) [Apelin polypeptide SEQ ID NO: 382]
